This is an account of results in the RNAGym collection of RNA variant scans (doi:10.7554/elife.80360).

The chains are these.
B1: Hairpin Ribozyme (parent)
chain: GUCCUCUUUCACGUGCGCGUGAAAGAGAGAAGUGAACCAGAGAAACACACGUUGUGGUAUAUUACCUGGUA

The variants in the data set derive from B1. The experiment in a line: self-cleavage, relative activity (ratio to wild type); higher = more cleavage; co-transcriptional.
For GUCCGCUUUCACGUGCGCGUGAAAGAGAGAAGUGAACCAGAGGAACACACGUUGUGGUAUAUUACCUGGUA [U5G A43G], the self-cleavage was determined as 0.
With GUCCGCUUUCACGUGCGCGUGAAAGAGAGAAGUGAACCAGAGAAACACACGUUGUGGUAUAUUACCCGGUA [U5G U67C], the self-cleavage amounted to 0.117.
The same measure for GUCCGCUUUCACGUGCGCGUGAAAGAGAGAAGUGAACCAGAGAAACACACGUUGUGGUAUAUUACCAGGUA [U5G U67A]: 0.275; for GUCCGCUUUCACGUGCGCGUGAAAGAGAGAAGUGAACCAGAGAAACACACGUUGUGGUAGAUUACCUGGUA [U5G U60G]: 0.353.
With GUCCGCUUUCACGUGCGCGUGAAAGAGAGAAGUGAACCAGAGAAACACACGUUGUGGUUUAUUACCUGGUA [U5G A59U], the self-cleavage was 0.0694.
Regarding GUCCGCUUUCACGUGCGCGGGAAAGAGAGAAGUGAACCAGAGAAACACACGUUGUGGUAUAUUACCUGGUA [U5G U20G], the self-cleavage is 0.238.
The same measure for GUCCGCUUUCACGUGCGCGAGAAAGAGAGAAGUGAACCAGAGAAACACACGUUGUGGUAUAUUACCUGGUA [U5G U20A]: 0.279.
With GUCCGCUUUCACGUGCGCGUGAAAGAGAGAAGUGAAUCAGAGAAACACACGUUGUGGUAUAUUACCUGGUA [U5G C37U], the self-cleavage was 0.516.
Consider GUCCGCUUUCACGUGCGCGUGAAAGAGAGAAGUGAAACAGAGAAACACACGUUGUGGUAUAUUACCUGGUA [U5G C37A], for which the self-cleavage amounted to 0.23.
With GUCCGCUUUCACGUGCGCGUGAAAUAGAGAAGUGAACCAGAGAAACACACGUUGUGGUAUAUUACCUGGUA [U5G G25U], the self-cleavage was found to be 0.306.
As for GUCCUAUUUCACGUGCGCGUGAAUGAGAGAAGUGAACCAGAGAAACACACGUUGUGGUAUAUUACCUGGUA [C6A A24U], the self-cleavage was found to be 0.487.
Under GUCCUAUUUCACGUGCGCGUGAGAGAGAGAAGUGAACCAGAGAAACACACGUUGUGGUAUAUUACCUGGUA [C6A A23G] stands 0.387; under GUCCGCUUUCACGUGCGCGUGAAAGAGAGAAGUGAACCCGAGAAACACACGUUGUGGUAUAUUACCUGGUA [U5G A39C], 0.129; under GUCCGCUUUCACGUGCGCGUGAAAGAGAGAAGUGAACCUGAGAAACACACGUUGUGGUAUAUUACCUGGUA [U5G A39U], 0.11.
Turning to GUCCGCUUUCACGUGCGCGUGAAAGAGAGAAGUGAACCAGAGAAACACACGUUGUGGUAUAUUAUCUGGUA [U5G C65U], the self-cleavage is 0.218.
With GUCCGCUUUCACGUGCGCGUGAAAGAGAGAAGUGAACCAGAGAAACACACGUUGUGGUAUAUUAACUGGUA [U5G C65A], the self-cleavage worked out at 0.268.
On to GUCCGCUUUCACGUGCGCGUCAAAGAGAGAAGUGAACCAGAGAAACACACGUUGUGGUAUAUUACCUGGUA [U5G G21C], for which the self-cleavage worked out at 0.177.
In the case of GUCCGCUUUCACGUGCGCGUGAAAGAGAGAAGUGAACCAGAGAAACACACGUUGUGGUAUAAUACCUGGUA [U5G U62A], the self-cleavage came out at 0.124.
GUCCGCUUUCACGUGCGCGUGAAAGAGAGAAGUGAACCAGAGAAACACACGUUGUGGUAUACUACCUGGUA [U5G U62C]: the self-cleavage was 0.129.
The same measure for GUCCUAUUUCACGUGCGCGUGGAAGAGAGAAGUGAACCAGAGAAACACACGUUGUGGUAUAUUACCUGGUA [C6A A22G]: 0.453.
In the case of GUCCGCUUUCACGUGCGCGUGAAAGAGAGAAGUGAACCAGAGAGACACACGUUGUGGUAUAUUACCUGGUA [U5G A44G], the self-cleavage was found to be 0.177.
The same measure for GUCCGCUUUCACGUGCGCGUGAAAGAGAGAAGUGAACCAGAGACACACACGUUGUGGUAUAUUACCUGGUA [U5G A44C]: 0.147; for GUCCGCUUUCACGUGCGCGUGAAAGAGAGAAGUCAACCAGAGAAACACACGUUGUGGUAUAUUACCUGGUA [U5G G34C]: 0.886; for GUCCGCUUUCACGUGCGCGUGAAAGAGAGAAGUAAACCAGAGAAACACACGUUGUGGUAUAUUACCUGGUA [U5G G34A]: 0.603.
Under GUCCGCUUUCACGUGCGCGUGAAAGAGAGAAGUGAACCAGAGAAAGACACGUUGUGGUAUAUUACCUGGUA [U5G C46G] stands 0.243; under GUCCGCUUUCACGUGCGCGUGAAAGAGAGAAGUGAACCAGAGAAAUACACGUUGUGGUAUAUUACCUGGUA [U5G C46U], 0.279; under GUCCGCUUUCACGUGCGCGUGAAAGAGAGAAGUGAACCAGAGAAACAAACGUUGUGGUAUAUUACCUGGUA [U5G C48A], 0.125.
As for GUCCGCUUUCACGUGCGCGUGAAAGAGAGAAGUGAACCAGAGAAACAGACGUUGUGGUAUAUUACCUGGUA [U5G C48G], the self-cleavage is 0.0331.
Regarding GUCCGCCUUCACGUGCGCGUGAAAGAGAGAAGUGAACCAGAGAAACACACGUUGUGGUAUAUUACCUGGUA [U5G U7C], the self-cleavage stood at 0.143.
The same measure for GUCCGCGUUCACGUGCGCGUGAAAGAGAGAAGUGAACCAGAGAAACACACGUUGUGGUAUAUUACCUGGUA [U5G U7G]: 0.171; for GUCCGCUUUCACGUGCGCGUGAAAGAGAGAAGUGAACCAGAGAAACACACGUCGUGGUAUAUUACCUGGUA [U5G U53C]: 0.0534.
Under GUCCUAUUUCACGUGCGCGUGAAAGAGAGAAGUGAACCAGAGAAACACACGUUGUGGUAUAUUACCUGGUA [C6A] stands 0.586; under GUCCGCUUUCACGUGCGCGUGAAAGAGAGAAGUGAACCAGAGAAACACACGUUUUGGUAUAUUACCUGGUA [U5G G54U], 0.228.
As for GUCCUAUUUCACGUGCGCGUGAAAGUGAGAAGUGAACCAGAGAAACACACGUUGUGGUAUAUUACCUGGUA [C6A A26U], the self-cleavage was determined as 0.364.
In the case of GUCCUAUUUCACGUGCGCGUGAAAGGGAGAAGUGAACCAGAGAAACACACGUUGUGGUAUAUUACCUGGUA [C6A A26G], the self-cleavage was determined as 0.281.
Regarding GUCCGCUUUCACGUGCGCGUGAAAGAGAGAACUGAACCAGAGAAACACACGUUGUGGUAUAUUACCUGGUA [U5G G32C], the self-cleavage amounted to 0.091.
Consider GUCCGCUUUCACGUGCGCGUGAAAGAGAGAAGUGAACCAGAAAAACACACGUUGUGGUAUAUUACCUGGUA [U5G G42A], for which the self-cleavage was determined as 0.0213.
For the variant GUCCGCUUUCACAUGCGCGUGAAAGAGAGAAGUGAACCAGAGAAACACACGUUGUGGUAUAUUACCUGGUA [U5G G13A], the self-cleavage was found to be 0.245.
